Consider one substance from patent US20110008312A1.

In the test the target is fibrillin-1 (human) (UniProt P35555). The experiment in a line: cell-based or functional assay.
Chain of UniProt P35555 (P35555 45-2731 limits assumed): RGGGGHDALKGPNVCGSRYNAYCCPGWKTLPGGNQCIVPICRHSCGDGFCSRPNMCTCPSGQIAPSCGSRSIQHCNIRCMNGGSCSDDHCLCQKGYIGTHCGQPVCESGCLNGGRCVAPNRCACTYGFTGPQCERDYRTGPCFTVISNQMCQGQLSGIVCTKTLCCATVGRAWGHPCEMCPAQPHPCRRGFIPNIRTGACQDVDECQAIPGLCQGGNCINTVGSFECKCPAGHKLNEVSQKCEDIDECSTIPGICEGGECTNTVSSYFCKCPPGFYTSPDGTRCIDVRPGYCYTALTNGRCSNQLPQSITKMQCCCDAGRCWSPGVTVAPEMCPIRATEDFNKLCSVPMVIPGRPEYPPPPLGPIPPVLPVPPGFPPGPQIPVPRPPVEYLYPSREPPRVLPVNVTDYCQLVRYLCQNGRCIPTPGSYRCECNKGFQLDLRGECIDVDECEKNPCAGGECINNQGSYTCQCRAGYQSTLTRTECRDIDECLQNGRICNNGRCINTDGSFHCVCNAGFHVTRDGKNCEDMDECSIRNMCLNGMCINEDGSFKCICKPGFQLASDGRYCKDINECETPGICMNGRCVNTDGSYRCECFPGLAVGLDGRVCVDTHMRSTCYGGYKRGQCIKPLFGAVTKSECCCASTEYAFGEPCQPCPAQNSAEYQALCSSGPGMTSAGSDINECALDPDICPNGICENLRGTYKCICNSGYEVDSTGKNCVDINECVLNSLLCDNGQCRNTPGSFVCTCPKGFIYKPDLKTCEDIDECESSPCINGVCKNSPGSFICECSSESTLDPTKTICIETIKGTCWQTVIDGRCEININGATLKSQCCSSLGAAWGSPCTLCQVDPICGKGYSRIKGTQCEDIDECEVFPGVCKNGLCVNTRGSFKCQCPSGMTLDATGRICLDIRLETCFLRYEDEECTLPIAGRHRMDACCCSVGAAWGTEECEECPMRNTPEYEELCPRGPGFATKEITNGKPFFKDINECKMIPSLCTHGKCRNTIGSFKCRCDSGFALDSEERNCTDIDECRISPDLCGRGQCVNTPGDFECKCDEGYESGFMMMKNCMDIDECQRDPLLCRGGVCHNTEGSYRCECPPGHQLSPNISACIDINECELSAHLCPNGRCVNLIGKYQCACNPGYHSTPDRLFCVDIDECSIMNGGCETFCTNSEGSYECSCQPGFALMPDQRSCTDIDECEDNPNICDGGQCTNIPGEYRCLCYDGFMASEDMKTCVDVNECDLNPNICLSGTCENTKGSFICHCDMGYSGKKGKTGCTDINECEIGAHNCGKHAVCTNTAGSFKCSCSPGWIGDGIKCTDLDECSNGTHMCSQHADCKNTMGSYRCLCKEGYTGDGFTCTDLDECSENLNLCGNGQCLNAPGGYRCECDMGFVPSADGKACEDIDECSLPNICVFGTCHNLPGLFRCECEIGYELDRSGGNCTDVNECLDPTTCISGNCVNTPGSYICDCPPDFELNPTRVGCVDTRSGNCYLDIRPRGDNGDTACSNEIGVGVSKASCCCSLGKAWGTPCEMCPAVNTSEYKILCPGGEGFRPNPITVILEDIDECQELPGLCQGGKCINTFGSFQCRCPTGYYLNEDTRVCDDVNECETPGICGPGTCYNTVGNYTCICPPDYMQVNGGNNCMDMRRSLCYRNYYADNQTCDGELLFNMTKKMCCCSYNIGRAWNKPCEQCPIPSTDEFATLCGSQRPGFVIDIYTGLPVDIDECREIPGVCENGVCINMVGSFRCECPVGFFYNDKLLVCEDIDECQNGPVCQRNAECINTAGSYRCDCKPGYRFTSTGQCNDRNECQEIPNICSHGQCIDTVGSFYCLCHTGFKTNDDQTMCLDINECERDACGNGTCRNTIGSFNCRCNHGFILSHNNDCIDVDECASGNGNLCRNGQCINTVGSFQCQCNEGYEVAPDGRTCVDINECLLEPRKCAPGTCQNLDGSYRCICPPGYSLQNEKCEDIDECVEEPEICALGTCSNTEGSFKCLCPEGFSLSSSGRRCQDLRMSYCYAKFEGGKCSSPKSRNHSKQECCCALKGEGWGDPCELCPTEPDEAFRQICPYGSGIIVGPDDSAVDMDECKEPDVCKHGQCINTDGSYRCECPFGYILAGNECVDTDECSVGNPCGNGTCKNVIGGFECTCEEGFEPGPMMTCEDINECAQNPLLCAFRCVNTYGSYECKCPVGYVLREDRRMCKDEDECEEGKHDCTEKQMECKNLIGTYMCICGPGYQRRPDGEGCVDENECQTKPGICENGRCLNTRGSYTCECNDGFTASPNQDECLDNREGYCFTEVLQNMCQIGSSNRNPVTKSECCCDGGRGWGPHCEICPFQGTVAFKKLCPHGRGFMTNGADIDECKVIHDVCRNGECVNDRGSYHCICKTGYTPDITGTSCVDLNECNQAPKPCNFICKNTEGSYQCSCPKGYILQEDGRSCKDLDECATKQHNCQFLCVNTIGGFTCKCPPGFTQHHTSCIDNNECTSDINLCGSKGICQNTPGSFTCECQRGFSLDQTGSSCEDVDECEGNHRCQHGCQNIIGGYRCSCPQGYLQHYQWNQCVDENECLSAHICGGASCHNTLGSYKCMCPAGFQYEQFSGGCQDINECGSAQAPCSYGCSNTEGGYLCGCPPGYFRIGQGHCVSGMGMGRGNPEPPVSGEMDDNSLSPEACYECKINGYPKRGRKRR

Chain of elastin (P15502 27-786 limits assumed): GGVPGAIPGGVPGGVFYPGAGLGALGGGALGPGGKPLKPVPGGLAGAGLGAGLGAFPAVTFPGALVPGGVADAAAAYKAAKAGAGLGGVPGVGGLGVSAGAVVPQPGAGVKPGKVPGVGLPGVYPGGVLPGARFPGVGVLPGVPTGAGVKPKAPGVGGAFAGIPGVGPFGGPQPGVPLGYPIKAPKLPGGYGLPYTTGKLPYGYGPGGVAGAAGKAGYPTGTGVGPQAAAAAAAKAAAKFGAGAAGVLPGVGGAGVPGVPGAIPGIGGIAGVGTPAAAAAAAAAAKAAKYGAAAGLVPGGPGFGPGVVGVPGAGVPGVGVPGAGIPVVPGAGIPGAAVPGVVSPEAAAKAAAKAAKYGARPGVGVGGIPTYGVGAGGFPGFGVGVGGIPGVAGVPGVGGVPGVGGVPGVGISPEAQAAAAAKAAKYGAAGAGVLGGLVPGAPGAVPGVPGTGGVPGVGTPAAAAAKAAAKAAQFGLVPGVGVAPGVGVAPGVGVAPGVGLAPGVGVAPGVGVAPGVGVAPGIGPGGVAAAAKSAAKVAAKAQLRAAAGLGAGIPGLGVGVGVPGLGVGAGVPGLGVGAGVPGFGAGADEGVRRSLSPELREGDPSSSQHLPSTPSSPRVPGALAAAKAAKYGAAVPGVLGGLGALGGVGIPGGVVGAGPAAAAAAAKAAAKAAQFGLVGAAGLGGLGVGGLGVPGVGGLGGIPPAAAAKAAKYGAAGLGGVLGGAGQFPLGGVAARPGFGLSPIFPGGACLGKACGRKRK

elastin (from UniProt P15502 27-786) yielded an amount of elastin deposition to the extracellular matrix (% vs CS-free), keloid cells, CS-A added of 87%; an amount of elastin deposition to the extracellular matrix (% vs CS-free), keloid cells, CS-A and CS-B added of 66.3%; an amount of elastin deposition to the extracellular matrix (% vs CS-free), keloid cells, CS-A and CS-C added of 67.4%; an amount of elastin deposition to the extracellular matrix (% vs CS-free), keloid cells, CS-A, CS-B and CS-C added of 37.6%. The substance also registered an amount of elastin deposition to the extracellular matrix (% vs CS-free), keloid cells, CS-B added of 95.9%; an amount of elastin deposition to the extracellular matrix (% vs CS-free), keloid cells, CS-B and CS-C added of 91%; an amount of elastin deposition to the extracellular matrix (% vs CS-free), keloid cells, CS-C added of 86.7%; an amount of elastin deposition to the extracellular matrix (% vs CS-free), keloid cells, CS-free of 100%.
